Assay results as given in article PMC12363175 (2025).

B1: wild Bactrian camel ACE2 ectodomain fused with mFc (Fc fusion)
chain: QSTTEELAKTFLEEFNHEAEDLSYQSSLASWNYNTNITDENVQKMNDARAKWSTFYEEKSKTAKTYPLEEIQNVTLKRQLQALQQSGASALSADKSKRLTTVLSTMSTIYSSGEVCDPNNPQECLVLEPGLDDIMENSKDYNQRLWAWEGWRAEVGKQLRPLYEEYVVLKNEMARANNYEDYGDYWRGDYEVMWAGDYDYSRDQLMGDVEHTFAEIKPLYEHLHAYVRAKLMDVYPSHISPTGCLPAHLLGDMWGRFWTNLYSLTVPFGQKPNIDVTEAMENQSWDAKRIFKEAEKFFVSIGLPNMTQGFWDNSMLTEPGDGRKVVCHPTAWDLGKGDFRIKMCTKVTMDDFLTAHHEMGHIQYDMAYAIQPFLLRNGANEGFHEAVGEIMSLSAATPHYLKALGLLPADFYEDSETEINFLLKQALTIVGTLPFTYMLEKWRWMVFKGEIPKEQWMQKWWEMKREIVGVVEPLPHDETYCDPACLFHVAEDYSFIRYYTRTIYQFQFHEALCQIAKHEGPLYKCDISNSTEAGQKLLQMLSLGKSEPWTLALEGLVGVKTMDVKPLLNYFEPLLTWLKDQNRNSFVGWSTDWTPYTDQSIKVRISLKSALGDKAYEWNDNEMYLFQSSLAYAMRKYFLKVQNQTILFGVEDVWVSDLKPRISFSFFVTSPKNVSDIIPRTEVEEAIRMSRSRINDAFRLDDNSLEFLGIQPTLGPPYEPP
B2: sheep ACE2 ectodomain fused with mFc (Fc fusion)
chain: QSTTEGQAKTFLEKFNHEAEDLSYQSSLASWNYNTNITDENVQKMNEARAKWSAFYEEQSRMARTYSLEEIQNLTLKRQLKALQHSGTSVLSAEKSKRLNTILNKMSTIYSTGKVLDPNTQECLALEPGLDDIMENSRDYNRRLWAWEGWRAEVGKQLRPLYEEYVVLENEMARANNYEDYGDYWRGDYEVTGAGDYDYSRDQLMKDVERTFEEIKPLYEQLHAYVRAKLMDTYPSYISPTGCLPAHLLGDMWGRFWTNLYSLTVPFEHKPSIDVTEKMKNQSWDAERIFKEAEKFFVSIGLPYMTQGFWDNSMLTEPGDGRKVVCHPTAWDLGKGDFRIKMCTKVTMDDFLTAHHEMGHIQYDMAYATQPYLLRNGANEGFHEAVGEIMSLSAATPHYLKALGLLAPDFYEDNETEINFLLKQALTIVGTLPFTYMLEKWRWMVFKGEIPKQQWMEKWWEMKREIVGVVEPLPHDETYCDPACLFHVAEDYSFIRYYTRTIYQFQFHEALCKTAKHEGALFKCDISNSTEAGQRLLQMLRLGKSEPWTLALENIVGIKTMDVKPLLNYFEPLFTWLKEQNRNSFVGWSTEWTPYSDQSIKVRISLKSALGENAYEWNDNEMYLFRSSVAYAMRKYFLKERNETIPFGEENVWVSDKKPRISFKFFVTSPNNVSDIIPRTEVENAIRLCRDRINDAFQLDDNSLEFLGIQPTLRPPYEPP
B3: golden hamster ACE2 ectodomain fused with mFc (Fc fusion)
chain: QSIIEEQAKTFLDKFNQEAEDLSYQSALASWNYNTNITEENAQKMNEAAAKWSAFYEEQSKLAKNYSLQEVQNLTIKRQLQALQQSGSSALSADKNKQLNTILNTMSTIYSTGKVCNPKNPQECLLLEPGLDDIMATSTDYNERLWAWEGWRAEVGKQLRPLYEEYVVLKNEMARANNYEDYGDYWRGDYEAEGADGYNYNGNQLIEDVERTFKEIKPLYEQLHAYVRTKLMNTYPSYISPTGCLPAHLLGDMWGRFWTNLYPLTVPFGQKPNIDVTDAMVNQGWNAERIFKEAEKFFVSVGLPYMTQGFWENSMLTDPGDDRKVVCHPTAWDLGKGDFRIKMCTKVTMDNFLTAHHEMGHIQYDMAYATQPFLLRNGANEGFHEAVGEIMSLSAATPEHLKSIGLLPSDFQEDNETEINFLLKQALTIVGTLPFTYMLEKWRWMVFKGDIPKEQWMEKWWEMKREIVGVVEPLPHDETYCDPAALFHVSNDYSFIRYYTRTIYQFQFQEALCQAAKHDGPLHKCDISNSTEAGQKLLNMLRLGKSEPWTLALENVVGARNMDVRPLLNYFEPLSVWLKEQNKNSFVGWNTDWSPYADQSIKVRISLKSALGENAYEWDDNEMYLFRASVAYAMRVYFAKNKTQTVPFGVEDIRVSDLKPRVSFNFFVTSPQNVSDIIPRNEVEEAVRLSRGRINDVFGLDDNSLEFLGINPTLSPPYQPPVT

target: SARS-CoV-2 PT-RBD (SARS-CoV-2 prototype, UniProt P0DTC2); test: SPR

Binder	Kd [nM]
B1	993
B2	171
B3	71.8
